Where “and” joins values, the source holds several entries; their conditions need not be identical. Equal entries are not always repeated.
Tests used:
[1] = target: IRE1-KR-3P: human IRE1α kinase-endoribonuclease module (residues G547-L977), fully phosphorylated (human) (UniProt O75460); test: cross-linking; 1 μg IRE1-KR (~0.8 μM) or various concentrations in RNA cleavage buffer (20 mM HEPES pH 7.5, 50 mM K acetate, 1 mM Mg acetate, 0.05% Triton X-100), 250 μM DSS, 1 h on ice; SDS-PAGE and IRE1α immunoblot; also with CRUK-3 (5 µM), which augmented KR-0P dimerization and oligomerization
[2] = target: IRE1-KR-0P: human IRE1α kinase-endoribonuclease module (residues G547-L977), unphosphorylated (human) (UniProt O75460); test: as above

Row | stoichiometry N [1] | stoichiometry N [2] | Substance
1 | 2 and 4 and 6 |  | IRE1-KR-3P: human IRE1α kinase-endoribonuclease module (residues G547-L977), fully phosphorylated (from UniProt O75460 547-977) (domain or fragment)
2 |  | 2 | IRE1-KR-0P: human IRE1α kinase-endoribonuclease module (residues G547-L977), unphosphorylated (from UniProt O75460 547-977) (domain or fragment)

— publication PMC8674358
